Laboratory results from patent publication US20240409614.

How the values were obtained:
A1AT-M351V/L353T/M358V = target: T1, A1AT-M351V/L353T/M358V
T1 chain: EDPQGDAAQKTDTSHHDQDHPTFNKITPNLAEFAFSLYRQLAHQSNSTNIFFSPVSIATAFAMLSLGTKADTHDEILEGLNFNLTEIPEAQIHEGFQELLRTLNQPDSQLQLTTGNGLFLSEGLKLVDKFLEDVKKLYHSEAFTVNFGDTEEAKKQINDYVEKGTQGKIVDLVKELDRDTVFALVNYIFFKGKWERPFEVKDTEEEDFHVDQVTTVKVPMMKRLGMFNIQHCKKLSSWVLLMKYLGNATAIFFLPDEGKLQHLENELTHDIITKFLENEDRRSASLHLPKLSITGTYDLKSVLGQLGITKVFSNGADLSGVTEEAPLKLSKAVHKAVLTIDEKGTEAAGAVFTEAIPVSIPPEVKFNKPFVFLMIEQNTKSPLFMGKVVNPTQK

[1] = target: wildtype alpha-1-antitrypsin (A1AT)
A1AT-M351V/L353S/M358V = target: T2, A1AT-M351V/L353S/M358V
T2 chain: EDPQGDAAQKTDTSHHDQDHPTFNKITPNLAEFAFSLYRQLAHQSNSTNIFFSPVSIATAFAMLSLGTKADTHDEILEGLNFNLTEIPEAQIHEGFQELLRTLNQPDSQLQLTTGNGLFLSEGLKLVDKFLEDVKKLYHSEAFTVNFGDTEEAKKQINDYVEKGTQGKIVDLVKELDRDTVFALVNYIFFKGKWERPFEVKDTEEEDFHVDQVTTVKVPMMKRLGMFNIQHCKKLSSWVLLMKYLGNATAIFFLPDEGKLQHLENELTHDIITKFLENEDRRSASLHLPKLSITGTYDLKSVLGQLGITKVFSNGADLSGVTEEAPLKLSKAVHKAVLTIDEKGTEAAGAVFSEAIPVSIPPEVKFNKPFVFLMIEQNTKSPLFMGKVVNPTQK

A1AT-M351V/L353A/M358V = target: T3, A1AT-M351V/L353A/M358V
T3 chain: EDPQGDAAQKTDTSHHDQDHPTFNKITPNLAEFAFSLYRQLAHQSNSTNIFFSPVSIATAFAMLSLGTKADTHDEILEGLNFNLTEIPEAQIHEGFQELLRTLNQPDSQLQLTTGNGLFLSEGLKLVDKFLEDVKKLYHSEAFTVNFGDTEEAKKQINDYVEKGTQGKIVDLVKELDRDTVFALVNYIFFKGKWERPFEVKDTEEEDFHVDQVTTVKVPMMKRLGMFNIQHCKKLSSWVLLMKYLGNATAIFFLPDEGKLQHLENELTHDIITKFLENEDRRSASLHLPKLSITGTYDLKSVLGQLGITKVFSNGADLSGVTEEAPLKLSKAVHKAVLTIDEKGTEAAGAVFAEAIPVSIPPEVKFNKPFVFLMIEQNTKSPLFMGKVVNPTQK

B1: MMP-9 (ProSpec, cat #enz-438) (protein)
chain: APRQRQSTLVLFPGDLRTNLTDRQLAEEYLYRYGYTRVAEMRGESKSLGPALLLLQKQLSLPETGELDSATLKAMRTPRCGVPDLGRFQTFEGDLKWHHHNITYWIQNYSEDLPRAVIDDAFARAFALWSAVTPLTFTRVYSRDADIVIQFGVAEHGDGYPFDGKDGLLAHAFPPGPGIQGDAHFDDDELWSLGKGVVVPTRFGNADGAACHFPFIFEGRSYSACTTDGRSDGLPWCSTTANYDTDDRFGFCPSERLYTQDGNADGKPCQFPFIFQGQSYSACTTDGRSDGYRWCATTANYDRDKLFGFCPTRADSTVMGGNSAGELCVFPFTFLGKEYSTCTSEGRGDGRLWCATTSNFDSDKKWGFCPDQGYSLFLVAAHEFGHALGLDHSSVPEALMYPMYRFTEGPPLHKDDVNGIRHLYGPRPEPEPRPPTTTTPQPTAPPTVCPTGPPTVHPSERPTAGPTGPPSAGPTGPPTAGPSTATTVPLSPVDDACNVNIFDAIAEIGNQLYLFKDGKYWRFSEGRGSRPQGPFLIADKWPALPRKLDSVFEERLSKKLFFFSGRQVWVYTGASVLGPRRLDKLGLGADVAQVTGALRSGRGKMLLFSGRRLWRFDVKAQMVDPRSASEVDRMFPGVPLDTHDVFQYREKAYFCQDRFYWRVSSRSELNQVDQVGYVTYDILQCPED
B1 gave a cleaved (%) after MMP-9 treatment (SDS-PAGE) (A1AT-M351V/L353T/M358V) of 0%, a non-cleaved (%) after MMP-9 treatment (SDS-PAGE) (A1AT-M351V/L353T/M358V) of 100% and a cleaved (%) after MMP-9 treatment (SDS-PAGE) (A1AT-M351V/M358V) of 25%. It also gave a non-cleaved (%) after MMP-9 treatment (SDS-PAGE) (A1AT-M351V/M358V) of 75%, a cleaved (%) after MMP-9 treatment (SDS-PAGE) [1] of 89% and a non-cleaved (%) after MMP-9 treatment (SDS-PAGE) [1] of 11%. For the same protein, the cleaved (%) after MMP-9 treatment (SDS-PAGE) (A1AT-M351V/L353S/M358V) was 0%, the non-cleaved (%) after MMP-9 treatment (SDS-PAGE) (A1AT-M351V/L353S/M358V) was 100% and the cleaved (%) after MMP-9 treatment (SDS-PAGE) (A1AT-M351V/L353A/M358V) was 6%. For the same protein, the non-cleaved (%) after MMP-9 treatment (SDS-PAGE) (A1AT-M351V/L353A/M358V) was 94%.

B2: MMP-7 (ProSpec, cat #enz-271) (protein)
chain: YSLFPNSPKWTSKVVTYRIVSYTRDLPHITVDRLVSKALNMWGKEIPLHFRKVVWGTADIMIGFARGAHGDSYPFDGPGNTLAHAFAPGTGLGGDAHFDEDERWTDGSSLGINFLYAATHELGHSLGMGHSSDPNAVMYPTYGNGDPQNFKLSQDDIKGIQKLYGKRSNSRKK
In the case of B2, the “proteolytic degradation by MMP-7 (SDS-PAGE, FIG. 4)” value (from here on “proteolytic degradation”) (A1AT-M351V/L353A) is reported as “A0025 showed as little degradation by MMP-7 as A0028 and A0031”, the cleaved (%) after MMP-7 treatment (SDS-PAGE) (A1AT-M351V/L353T/M358V) is reported as 5% and the non-cleaved (%) after MMP-7 treatment (SDS-PAGE) (A1AT-M351V/L353T/M358V) is reported as 95%. For the same protein, the “proteolytic degradation” value (A1AT-L353A) was “A0025 showed as little degradation by MMP-7 as A0028 and A0031”, the cleaved (%) after MMP-7 treatment (SDS-PAGE) (A1AT-M351V/M358V) was 63% and the non-cleaved (%) after MMP-7 treatment (SDS-PAGE) (A1AT-M351V/M358V) was 37%. The cleaved (%) after MMP-7 treatment (SDS-PAGE) [1] was 96%, the non-cleaved (%) after MMP-7 treatment (SDS-PAGE) [1] was 4% and the “proteolytic degradation” value (A1AT-L353A/M358V) was “A0025 showed as little degradation by MMP-7 as A0028 and A0031”. For the same protein, the cleaved (%) after MMP-7 treatment (SDS-PAGE) (A1AT-M351V/L353S/M358V) was 0%, the non-cleaved (%) after MMP-7 treatment (SDS-PAGE) (A1AT-M351V/L353S/M358V) was 100% and the cleaved (%) after MMP-7 treatment (SDS-PAGE) (A1AT-M351V/L353A/M358V) was 0%. It also gave a non-cleaved (%) after MMP-7 treatment (SDS-PAGE) (A1AT-M351V/L353A/M358V) of 100%.
